One test concerns the target kallikrein-6 (Homo sapiens, UniProt Q92876). The test is described as follows: enzyme inhibition.
The next test addresses T1, anionic trypsin (Homo sapiens, UniProt P07478).
T1 chain: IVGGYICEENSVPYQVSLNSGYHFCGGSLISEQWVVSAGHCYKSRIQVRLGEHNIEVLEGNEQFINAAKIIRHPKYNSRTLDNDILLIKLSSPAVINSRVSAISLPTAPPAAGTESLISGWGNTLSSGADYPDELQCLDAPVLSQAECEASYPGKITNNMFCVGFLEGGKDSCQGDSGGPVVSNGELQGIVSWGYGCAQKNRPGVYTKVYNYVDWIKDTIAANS
Nature of the test: enzyme inhibition.

The next test addresses factor XIa (Homo sapiens, UniProt P03951). The test is described as follows: enzyme inhibition.
The target of the next test is cationic trypsin (Homo sapiens, UniProt P07477). The test is described as follows: enzyme inhibition.
In a further test the target is T2, mesotrypsin (Homo sapiens, UniProt P35030).
T2 chain: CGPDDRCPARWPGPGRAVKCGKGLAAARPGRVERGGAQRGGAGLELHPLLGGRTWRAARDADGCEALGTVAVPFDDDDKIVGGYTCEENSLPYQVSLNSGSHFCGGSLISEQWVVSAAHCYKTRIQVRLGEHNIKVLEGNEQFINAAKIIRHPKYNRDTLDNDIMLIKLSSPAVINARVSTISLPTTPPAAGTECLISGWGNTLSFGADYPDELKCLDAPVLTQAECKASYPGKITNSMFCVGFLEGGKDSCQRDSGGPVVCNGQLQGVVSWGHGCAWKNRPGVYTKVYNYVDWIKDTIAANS
The test is described as follows: competitive inhibition of Z-GPR-pNA cleavage.

Sequence of factor XIa (P03951 388-625): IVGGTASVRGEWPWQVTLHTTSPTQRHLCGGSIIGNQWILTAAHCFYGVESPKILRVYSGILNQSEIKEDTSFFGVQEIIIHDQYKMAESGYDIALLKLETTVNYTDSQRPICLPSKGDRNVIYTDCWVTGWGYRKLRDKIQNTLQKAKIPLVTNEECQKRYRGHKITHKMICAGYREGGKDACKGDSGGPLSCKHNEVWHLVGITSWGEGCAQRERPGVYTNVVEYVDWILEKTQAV

B1: APPI Kunitz domain (protein)
chain: VREVCSEQAETGPCRAMISRWYFDVTEGKCAPFFYGGCGGNRNNFDTEEYCMAVCGSA
One may read the Ki as the dissociation constant of the complex between target and ligand, obtained from inhibition or displacement. B1: the Ki turned out to be 2230 pM with kallikrein-6; 1.74 pM with anionic trypsin; 410 pM with factor XIa; 6.27 pM with cationic trypsin; 131000 pM with mesotrypsin.

(Values after article PMC4898653 (2017).)
